Source: PMC12431652

Molecular target: Tripartite Motif Protein 28 (TRIM28), endogenous in HEK293T cells (UniProt Q13263)
Assay: co-immunoprecipitation (anti-FLAG IP, western blot band quantification)
Conditions: for percent of parent (rel. (PIV2-V = 100)): HEK293T cells transfected for 24 hours, n = 3, parent: 100, read off a plot

Sequence of UniProt Q13263 (Q13263 whole entry): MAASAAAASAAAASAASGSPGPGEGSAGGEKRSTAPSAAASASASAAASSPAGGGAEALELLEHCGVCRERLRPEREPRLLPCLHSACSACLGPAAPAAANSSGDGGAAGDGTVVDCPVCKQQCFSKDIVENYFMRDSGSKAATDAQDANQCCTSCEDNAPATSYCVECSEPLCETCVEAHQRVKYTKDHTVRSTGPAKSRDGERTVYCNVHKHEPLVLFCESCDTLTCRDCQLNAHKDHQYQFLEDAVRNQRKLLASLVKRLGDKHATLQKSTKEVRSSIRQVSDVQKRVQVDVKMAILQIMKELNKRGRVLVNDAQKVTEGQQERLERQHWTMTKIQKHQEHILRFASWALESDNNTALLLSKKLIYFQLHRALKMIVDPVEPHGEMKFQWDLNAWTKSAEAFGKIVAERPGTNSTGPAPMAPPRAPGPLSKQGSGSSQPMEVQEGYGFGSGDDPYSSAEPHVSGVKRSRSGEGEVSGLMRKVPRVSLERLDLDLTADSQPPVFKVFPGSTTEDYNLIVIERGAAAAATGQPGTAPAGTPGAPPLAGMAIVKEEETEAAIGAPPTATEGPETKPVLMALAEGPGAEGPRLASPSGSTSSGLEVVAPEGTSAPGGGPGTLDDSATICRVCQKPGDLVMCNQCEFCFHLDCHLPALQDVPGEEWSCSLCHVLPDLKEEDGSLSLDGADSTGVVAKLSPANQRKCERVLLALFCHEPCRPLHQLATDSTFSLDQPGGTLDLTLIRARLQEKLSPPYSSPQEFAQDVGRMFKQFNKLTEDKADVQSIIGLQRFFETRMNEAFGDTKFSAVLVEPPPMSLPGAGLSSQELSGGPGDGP

Substance	percent of parent (rel. (PIV2-V = 100))	percent of parent (rel. (PIV5-V = 100)) (n = 3, parent: 100, read off a plot)
FLAG-tagged full-length PIV2-V (pCMV7.1_3xFlag) (from UniProt P19847) A181G	110	
FLAG-tagged full-length PIV2-V (pCMV7.1_3xFlag) (from UniProt P19847) F190T	130	
FLAG-tagged full-length PIV2-V (pCMV7.1_3xFlag) (from UniProt P19847) Q186E	130	
FLAG-tagged full-length PIV2-V (pCMV7.1_3xFlag) (from UniProt P19847) W178Y	50	
FLAG-tagged full-length PIV5-V (pCMV7.1_3xFlag) (from UniProt P11207) Y175W		310
